These results are taken from the supplement of paper PMC5998384.

Series [1] concerns HeLa Kyoto. Put plainly: solubility in G1/S (NP-40 vs SDS abundance) (log2 ratio); higher = more soluble. The note with it: cell cycle stage: G1/S.
Series [2] has as its system HeLa Kyoto. Put plainly: thermal stability score vs G1/S (z-score of summed log2 fold changes over temperatures); higher = more thermally stable than in G1/S.
Series [3] has as its system HeLa Kyoto. The series can be described thus: melting temperature (median over replicates), in situ; higher = more thermally stable.
Series [4] concerns HeLa Kyoto. The series can be described thus: solubility change mitosis vs G1/S (difference of NP-40 vs SDS log2 ratios) (log2 ratio difference); higher = more soluble in mitosis.
Setting [5] is: cell cycle stage: early G1 (4.5 h after nocodazole release).
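Throughout, for melting temperature (median over replicates), in situ: HeLa Kyoto cells synchronized by double thymidine or nocodazole block, proteins quantified by TMT10plex mass spectrometry, three independent biological replicates.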
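Throughout, for solubility change mitosis vs G1/S (difference of NP-40 vs SDS log2 ratios): synchronized HeLa Kyoto cells (double thymidine block for G1/S, nocodazole release for mitosis), protein amounts in NP-40 versus SDS lysates quantified by mass spectrometry, three biological replicates.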
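Throughout, for solubility in G1/S (NP-40 vs SDS abundance): HeLa Kyoto cells arrested at G1/S by double thymidine block, proteins quantified by TMT10plex mass spectrometry in mild NP-40 versus SDS extracts, three biological replicates.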
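Throughout, for thermal stability score vs G1/S (z-score of summed log2 fold changes over temperatures): synchronized HeLa Kyoto cells, proteins quantified by TMT10plex mass spectrometry, three biological replicates, mitosis taken 0.5 h after nocodazole release, G1/S directly after double thymidine block.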

With “MLPARLPFRLLSLFLRGSAPTAARHGLREPLLERRCAAASSFQHSSSLGRELPYDPVDTEGFGEGGDMQERFLFPEYILDPEPQPTREKQLQELQQQQEEEERQRQQRREERRQQNLRARSREHPVVGHPDPALPPSGVNCSGCGAELHCQDAGVPGYLPREKFLRTAEADGGLARTVCQRCWLLSHHRRALRLQVSREQYLELVSAALRRPGPSLVLYMVDLLDLPDALLPDLPALVGPKQLIVLGNKVDLLPQDAPGYRQRLRERLWEDCARAGLLLAPGHQGPQRPVKDEPQDGENPNPPNWSRTVVRDVRLISAKTGYGVEELISALQRSWRYRGDVYLVGATNAGKSTLFNTLLESDYCTAKGSEAIDRATISPWPGTTLNLLKFPICNPTPYRMFKRHQRLKKDSTQAEEDLSEQEQNQLNVLKKHGYVVGRVGRTFLYSEEQKDNIPFEFDADSLAFDMENDPVMGTHKSTKQVELTAQDVKDAHWFYDTPGITKENCILNLLTEKEVNIVLPTQSIVPRTFVLKPGMVLFLGAIGRIDFLQGNQSAWFTVVASNILPVHITSLDRADALYQKHAGHTLLQIPMGGKERMAGFPPLVAEDIMLKEGLGASEAVADIKFSSAGWVSVTPNFKDRLHLRGYTPEGTVLTVRPPLLPYIVNIKGQRIKKSVAYKTKKPPSLMYNVRKKKGKINV [NOA1]”, the “solubility in G1/S (log2)” value in the series on HeLa Kyoto [1] is 0.131. Besides, the thermal stability score in the series on HeLa Kyoto [2] (setting [5]) was -0.456; in the series with HeLa Kyoto [2] (cell cycle stage: mitosis), 0.655. Further, the melting temperature was 49.8 °C with HeLa Kyoto [3] (cell cycle stage: G1/S) and 50.1 °C with HeLa Kyoto [3] (cell cycle stage: mitosis). Further, the “solubility change mitosis (log2)” value in the series on HeLa Kyoto [4] was -0.187.
Take “MLPGLAAAAAHRCSWSSLCRLRLRCRAAACNPSDRQEWQNLVTFGSFSNMVPCSHPYIGTLSQVKLYSTNVQKEGQGSQTLRVEKVPSFETAEGIGTELKAPLKQEPLQVRVKAVLKKREYGSKYTQNNFITGVRAINEFCLKSSDLEQLRKIRRRSPHEDTESFTVYLRSDVEAKSLEVWGSPEALAREKKLRKEAEIEYRERLFRNQKILREYRDFLGNTKPRSRTASVFFKGPGKVVMVAICINGLNCFFKFLAWIYTGSASMFSEAIHSLSDTCNQGLLALGISKSVQTPDPSHPYGFSNMRYISSLISGVGIFMMGAGLSWYHGVMGLLHPQPIESLLWAYCILAGSLVSEGATLLVAVNELRRNARAKGMSFYKYVMESRDPSTNVILLEDTAAVLGVIIAATCMGLTSITGNPLYDSLGSLGVGTLLGMVSAFLIYTNTEALLGRSIQPEQVQRLTELLENDPSVRAIHDVKATDLGLGKVRFKAEVDFDGRVVTRSYLEKQDFDQMLQEIQEVKTPEELETFMLKHGENIIDTLGAEVDRLEKELKKRNPEVRHVDLEIL [SLC30A9]”: the “solubility in G1/S (log2)” value with HeLa Kyoto [1] was -0.0134. For the same sequence, the thermal stability score is -0.0363 with HeLa Kyoto [2] (setting [5]) and -0.00857 with HeLa Kyoto [2] (cell cycle stage: mitosis). In addition, the melting temperature in the series on HeLa Kyoto [3] (cell cycle stage: G1/S) turned out to be 51.1 °C; with HeLa Kyoto [3] (cell cycle stage: mitosis), 51.9 °C. In addition, in the series on HeLa Kyoto [4], the “solubility change mitosis (log2)” value was -0.0502.
Turning to “MLPHVVLTFRRLGCALASCRLAPARHRGSGLLHTAPVARSDRSAPVFTRALAFGDRIALVDQHGRHTYRELYSRSLRLSQEICRLCGCVGGDLREERVSFLCANDASYVVAQWASWMSGGVAVPLYRKHPAAQLEYVICDSQSSVVLASQEYLELLSPVVRKLGVPLLPLTPAIYTGAVEEPAEVPVPEQGWRNKGAMIIYTSGTTGRPKGVLSTHQNIRAVVTGLVHKWAWTKDDVILHVLPLHHVHGVVNALLCPLWVGATCVMMPEFSPQQVWEKFLSSETPRINVFMAVPTIYTKLMEYYDRHFTQPHAQDFLRAVCEEKIRLMVSGSAALPLPVLEKWKNITGHTLLERYGMTEIGMALSGPLTTAVRLPGSVGTPLPGVQVRIVSENPQREACSYTIHAEGDERGTKVTPGFEEKEGELLVRGPSVFREYWNKPEETKSAFTLDGWFKTGDTVVFKDGQYWIRGRTSVDIIKTGGYKVSALEVEWHLLAHPSITDVAVIGVPDMTWGQRVTAVVTLREGHSLSHRELKEWARNVLAPYAVPSELVLVEEIPRNQMGKIDKKALIRHFHPS [ACSF3]”, the “solubility in G1/S (log2)” value in the series with HeLa Kyoto [1] was -0.107. Moreover, the thermal stability score is -0.21 with HeLa Kyoto [2] (setting [5]) and 1.59 with HeLa Kyoto [2] (cell cycle stage: mitosis). Also, the melting temperature came to 49.3 °C in the series on HeLa Kyoto [3] (cell cycle stage: G1/S) and 49.7 °C with HeLa Kyoto [3] (cell cycle stage: mitosis). Further, the “solubility change mitosis (log2)” value in the series on HeLa Kyoto [4] was -0.0957.
As to “MLPVYQEVKPNPLQDANLCSRVFFWWLNPLFKIGHKRRLEEDDMYSVLPEDRSQHLGEELQGFWDKEVLRAENDAQKPSLTRAIIKCYWKSYLVLGIFTLIEESAKVIQPIFLGKIINYFENYDPMDSVALNTAYAYATVLTFCTLILAILHHLYFYHVQCAGMRLRVAMCHMIYRKALRLSNMAMGKTTTGQIVNLLSNDVNKFDQVTVFLHFLWAGPLQAIAVTALLWMEIGISCLAGMAVLIILLPLQSCFGKLFSSLRSKTATFTDARIRTMNEVITGIRIIKMYAWEKSFSNLITNLRKKEISKILRSSCLRGMNLASFFSASKIIVFVTFTTYVLLGSVITASRVFVAVTLYGAVRLTVTLFFPSAIERVSEAIVSIRRIQTFLLLDEISQRNRQLPSDGKKMVHVQDFTAFWDKASETPTLQGLSFTVRPGELLAVVGPVGAGKSSLLSAVLGELAPSHGLVSVHGRIAYVSQQPWVFSGTLRSNILFGKKYEKERYEKVIKACALKKDLQLLEDGDLTVIGDRGTTLSGGQKARVNLARAVYQDADIYLLDDPLSAVDAEVSRHLFELCICQILHEKITILVTHQLQYLKAASQILILKDGKMVQKGTYTEFLKSGIDFGSLLKKDNEESEQPPVPGTPTLRNRTFSESSVWSQQSSRPSLKDGALESQDTENVPVTLSEENRSEGKVGFQAYKNYFRAGAHWIVFIFLILLNTAAQVAYVLQDWWLSYWANKQSMLNVTVNGGGNVTEKLDLNWYLGIYSGLTVATVLFGIARSLLVFYVLVNSSQTLHNKMFESILKAPVLFFDRNPIGRILNRFSKDIGHLDDLLPLTFLDFIQTLLQVVGVVSVAVAVIPWIAIPLVPLGIIFIFLRRYFLETSRDVKRLESTTRSPVFSHLSSSLQGLWTIRAYKAEERCQELFDAHQDLHSEAWFLFLTTSRWFAVRLDAICAMFVIIVAFGSLILAKTLDAGQVGLALSYALTLMGMFQWCVRQSAEVENMMISVERVIEYTDLEKEAPWEYQKRPPPAWPHEGVIIFDNVNFMYSPGGPLVLKHLTALIKSQEKVGIVGRTGAGKSSLISALFRLSEPEGKIWIDKILTTEIGLHDLRKKMSIIPQEPVLFTGTMRKNLDPFNEHTDEELWNALQEVQLKETIEDLPGKMDTELAESGSNFSVGQRQLVCLARAILRKNQILIIDEATANVDPRTDELIQKKIREKFAHCTVLTIAHRLNTIIDSDKIMVLDSGRLKEYDEPYVLLQNKESLFYKMVQQLGKAEAAALTETAKQVYFKRNYPHIGHTDHMVTNTSNGQPSTLTIFETAL [ABCC4]”, the “solubility in G1/S (log2)” value in the series with HeLa Kyoto [1] is -0.0872. The thermal stability score in the series on HeLa Kyoto [2] (setting [5]) was -1.17; in the series on HeLa Kyoto [2] (cell cycle stage: mitosis), -1.43. Besides, the melting temperature came out at 57.5 °C in the series on HeLa Kyoto [3] (cell cycle stage: G1/S) and 55.8 °C with HeLa Kyoto [3] (cell cycle stage: mitosis). For the same sequence, the “solubility change mitosis (log2)” value in the series on HeLa Kyoto [4] was -0.177.
Take “MLQQVPENINFPAEEEKILEFWTEFNCFQECLKQSKHKPKFTFYDGPPFATGLPHYGHILAGTIKDIVTRYAHQSGFHVDRRFGWDCHGLPVEYEIDKTLGIRGPEDVAKMGITEYNNQCRAIVMRYSAEWKSTVSRLGRWIDFDNDYKTLYPQFMESVWWVFKQLYDKGLVYRGVKVMPFSTACNTPLSNFESHQNYKDVQDPSVFVTFPLEEDETVSLVAWTTTPWTLPSNLAVCVNPEMQYVKIKDVARGRLLILMEARLSALYKLESDYEILERFPGAYLKGKKYRPLFDYFLKCKENGAFTVLVDNYVKEEEGTGVVHQAPYFGAEDYRVCMDFNIIRKDSLPVCPVDASGCFTTEVTDFAGQYVKDADKSIIRTLKEQGRLLVATTFTHSYPFCWRSDTPLIYKAVPSWFVRVENMVDQLLRNNDLCYWVPELVREKRFGNWLKDARDWTISRNRYWGTPIPLWVSDDFEEVVCIGSVAELEELSGAKISDLHRESVDHLTIPSRCGKGSLHRISEVFDCWFESGSMPYAQVHYPFENKREFEDAFPADFIAEGIDQTRGWFYTLLVLATALFGQPPFKNVIVNGLVLASDGQKMSKRKKNYPDPVSIIQKYGADALRLYLINSPVVRAENLRFKEEGVRDVLKDVLLPWYNAYRFLIQNVLRLQKEEEIEFLYNENTVRESPNITDRWILSFMQSLIGFFETEMAAYRLYTVVPRLVKFVDILTNWYVRMNRRRLKGENGMEDCVMALETLFSVLLSLCRLMAPYTPFLTELMYQNLKVLIDPVSVQDKDTLSIHYLMLPRVREELIDKKTESAVSQMQSVIELGRVIRDRKTIPIKYPLKEIVVIHQDPEALKDIKSLEKYIIEELNVRKVTLSTDKNKYGIRLRAEPDHMVLGKRLKGAFKAVMTSIKQLSSEELEQFQKTGTIVVEGHELHDEDIRLMYTFDQATGGTAQFEAHSDAQALVLLDVTPDQSMVDEGMAREVINRIQKLRKKCNLVPTDEITVYYKAKSEGTYLNSVIESHTEFIFTTIKAPLKPYPVSPSDKVLIQEKTQLKGSELEITLTRGSSLPGPACAYVNLNICANGSEQGGVLLLENPKGDNRLDLLKLKSVVTSIFGVKNTELAVFHDETEIQNQTDLLSLSGKTLCVTAGSAPSLINSSSTLLCQYINLQLLNAKPQECLMGTVGTLLLENPLGQNGLTHQGLLYEAAKVFGLRSRKLKLFLNETQTQEITEDIPVKTLNMKTVYVSVLPTTADF [IARS]”: in the series with HeLa Kyoto [1], the “solubility in G1/S (log2)” value is -0.225. The figures for the thermal stability score in the series on HeLa Kyoto [2] (setting [5]) and in the series with HeLa Kyoto [2] (cell cycle stage: mitosis) were 0.0148 and 2.81, respectively. Further, the values for the melting temperature in the series with HeLa Kyoto [3] (cell cycle stage: G1/S) and in the series on HeLa Kyoto [3] (cell cycle stage: mitosis) were 48.8 °C and 49.2 °C, respectively. In addition, the “solubility change mitosis (log2)” value with HeLa Kyoto [4] was -0.178.
